The record followed here is article PMC11674933, “Discovery of Carbonic Anhydrase 9 as a Novel CLEC2 Ligand in a Cellular Interactome Screen” (Cells, 2024).

The target of the assay is CA9^38−414-His-avi (human, UniProt Q16790, biotin (biotinylated)). In words: AlphaScreen or HTRF; validation of the AlphaLISA set-up (Figure S6) with tagged G250 against a control library protein; CA9 on the beads at 15 nM or 60 nM. The following applies: one partner purified. Background: Bead proximity is the source of the signal in Alpha formats.

B1: 2E3 tagged Girentuximab (G250) (antibody, V domains shown)
VH: DVKLVESGGGLVKLGGSLKLSCAASGFTFSNYYMSWVRQTPEKRLELVAAINSDGGITYYLDTVKGRFTISRDNAKNTLYLQMSSLKSEDTALFYCARHRSGYFSMDYWGQGTSVTVSS
VL: DIVMTQSQRFMSTTVGDRVSITCKASQNVVSAVAWYQQKPGQSPKLLIYSASNRYTGVPDRFTGSGSGTDFTLTISNMQSEDLADFFCQQYSNYPWTFGGGTKLEIK
notes: tagged versions of Girentuximab (G250); also called anti-CA9; G250 constructs
For the molecule B1, the binding result is “binds”.
